B1: NRC3_wobSeed116_DR4_T13C_o1 (dsDNA)
DNA 1: GCAGAATGAGGTCACCAAAGATCAGGGAAACGCTTGGCGATTGACAGCGTAGAATGAAGG
DNA 2: CCTTCATTCTACGCTGTCAATCGCCAAGCGTTTCCCTGATCTTTGGTGACCTCATTCTGC
B2: NRC3_wobSeed34_DR1_T4A_o1 (dsDNA)
DNA 1: GCAACGAAAGGTCGAAGGTGAGTATACCCACCCGAAGCGATTGACAGCGTAGAATGAAGG
DNA 2: CCTTCATTCTACGCTGTCAATCGCTTCGGGTGGGTATACTCACCTTCGACCTTTCGTTGC
B3: NRC3_wobSeed34_DR1_A21C_o1 (dsDNA)
DNA 1: B2 DNA 1 with A4T, A21C
DNA 2: B2 DNA 2 with T40G, T57A
B4: NRC3_wobSeed20_DR0_T13C_o1 (dsDNA)
DNA 1: GCAGAATGAGGTCAAGATCAGGGAAACAGAATACATGCGATTGACAGCGTAGAATGAAGG
DNA 2: CCTTCATTCTACGCTGTCAATCGCATGTATTCTGTTTCCCTGATCTTGACCTCATTCTGC
B5: NRC3_wobSeed13_DR0_C13T_o1 (dsDNA)
DNA 1: GCCGTCCAAGGTTAAGGTCAGTGAAAGAGACTCGAAGCGATTGACAGCGTAGAATGAAGG
DNA 2: CCTTCATTCTACGCTGTCAATCGCTTCGAGTCTCTTTCACTGACCTTAACCTTGGACGGC
B6: NRC3_wobSeed76_DR3_G9C_o1 (dsDNA)
DNA 1: GCCCTACTCGGCCAAAAAGGTCATTGATGCCGATAAGCGATTGACAGCGTAGAATGAAGG
DNA 2: CCTTCATTCTACGCTGTCAATCGCTTATCGGCATCAATGACCTTTTTGGCCGAGTAGGGC
B7: NRC3_wobSeed87_DR3_T8A_o1 (dsDNA)
DNA 1: GCCGAACAAGGTCATCCAGGACAGTGAATACATTGAGCGATTGACAGCGTAGAATGAAGG
DNA 2: CCTTCATTCTACGCTGTCAATCGCTCAATGTATTCACTGTCCTGGATGACCTTGTTCGGC
B8: NRC3_wobSeed87_DR3_A5C_o1 (dsDNA)
DNA 1: B7 DNA 1 with A5C, A8T
DNA 2: B7 DNA 2 with T53A, T56G
B9: NRC3_wobSeed14_DR0_T8G_o1 (dsDNA)
DNA 1: GCCCTGCGAGGTCATGGTCAGCTAATCTACAGTATGGCGATTGACAGCGTAGAATGAAGG
DNA 2: CCTTCATTCTACGCTGTCAATCGCCATACTGTAGATTAGCTGACCATGACCTCGCAGGGC
B10: NRC3_wobSeed112_DR4_G15C_o1 (dsDNA)
DNA 1: GCTAGCCTAGGTCACATCGGGCCAGTATACGCTATAGCGATTGACAGCGTAGAATGAAGG
DNA 2: CCTTCATTCTACGCTGTCAATCGCTATAGCGTATACTGGCCCGATGTGACCTAGGCTAGC
B11: NRC3_wobSeed135_DR5_T8G_o1 (dsDNA)
DNA 1: GCCGAACGAGGTCATTGACAGGACAGTGAATAGTAAGCGATTGACAGCGTAGAATGAAGG
DNA 2: CCTTCATTCTACGCTGTCAATCGCTTACTATTCACTGTCCTGTCAATGACCTCGTTCGGC
B12: NRC3_wobSeed135_DR5_T8A_o1 (dsDNA)
DNA 1: B11 DNA 1 with G8A
DNA 2: B11 DNA 2 with C53T
B13: NRC3_wobSeed135_DR5_A29G_o1 (dsDNA)
DNA 1: B11 DNA 1 with G8T, A29G
DNA 2: B11 DNA 2 with T32C, C53A
B14: NRC3_wobSeed39_DR1_T8G_o1 (dsDNA)
DNA 1: GCCGAACGAGGTCAAAGGACAGTGAAAGGCGACGTAGCGATTGACAGCGTAGAATGAAGG
DNA 2: CCTTCATTCTACGCTGTCAATCGCTACGTCGCCTTTCACTGTCCTTTGACCTCGTTCGGC
B15: NRC3_wobSeed39_DR1_G22T_o1 (dsDNA)
DNA 1: B14 DNA 1 with G8T, G22T
DNA 2: B14 DNA 2 with C39A, C53A
B16: NRC3_wobSeed88_DR3_C21A_o1 (dsDNA)
DNA 1: GCTAGCCTAGGTCATGCGGGACAGTATAGTGTCGGCGCGATTGACAGCGTAGAATGAAGG
DNA 2: CCTTCATTCTACGCTGTCAATCGCGCCGACACTATACTGTCCCGCATGACCTAGGCTAGC
B17: NRC3_wobSeed113_DR4_G29C_o1 (dsDNA)
DNA 1: GCATATGTAGGTTAGCTGGGGTCATTCACACTAGGCGCGATTGACAGCGTAGAATGAAGG
DNA 2: CCTTCATTCTACGCTGTCAATCGCGCCTAGTGTGAATGACCCCAGCTAACCTACATATGC
B18: NRC3_wobSeed18_DR0_C18T_o1 (dsDNA)
DNA 1: GCGATACAGGGTCAAGGTCAGAGTACGCGTATTGATGCGATTGACAGCGTAGAATGAAGG
DNA 2: CCTTCATTCTACGCTGTCAATCGCATCAATACGCGTACTCTGACCTTGACCCTGTATCGC
B19: NRC3_wobSeed63_DR2_T8A_o1 (dsDNA)
DNA 1: GCCGAACAAGGTCACCAGGACAGTGAAGAGGTTGGAGCGATTGACAGCGTAGAATGAAGG
DNA 2: CCTTCATTCTACGCTGTCAATCGCTCCAACCTCTTCACTGTCCTGGTGACCTTGTTCGGC
B20: NRC3_wobSeed92_DR3_T13C_o1 (dsDNA)
DNA 1: GCAGAATGAGGTCATTAAGATCAGGGAATTGCGGTCGCGATTGACAGCGTAGAATGAAGG
DNA 2: CCTTCATTCTACGCTGTCAATCGCGACCGCAATTCCCTGATCTTAATGACCTCATTCTGC
B21: NRC3_wobSeed138_DR5_G19C_o1 (dsDNA)
DNA 1: GCGATACAGGGTCAGCTACAGGCCAGAGTATGGAAAGCGATTGACAGCGTAGAATGAAGG
DNA 2: CCTTCATTCTACGCTGTCAATCGCTTTCCATACTCTGGCCTGTAGCTGACCCTGTATCGC
B22: NRC3_wobSeed134_DR5_G26C_o1 (dsDNA)
DNA 1: GCGCTGCTAGGTCAACTGATGGTCACCTAAAGCTCGGCGATTGACAGCGTAGAATGAAGG
DNA 2: CCTTCATTCTACGCTGTCAATCGCCGAGCTTTAGGTGACCATCAGTTGACCTAGCAGCGC
B23: NRC3_wobSeed10_DR0_T4G_o1 (dsDNA)
DNA 1: GCAGCGAAAGGTCGAGGTGAGTATAGAGAAAGGGAAGCGATTGACAGCGTAGAATGAAGG
DNA 2: CCTTCATTCTACGCTGTCAATCGCTTCCCTTTCTCTATACTCACCTCGACCTTTCGCTGC
B24: NRC3_wobSeed136_DR5_T16A_o1 (dsDNA)
DNA 1: GCTAGCCTAGGTCATACAGGGGCCAGTATAGAAAGCGCGATTGACAGCGTAGAATGAAGG
DNA 2: CCTTCATTCTACGCTGTCAATCGCGCTTTCTATACTGGCCCCTGTATGACCTAGGCTAGC
B25: NRC3_wobSeed114_DR4_T5A_o1 (dsDNA)
DNA 1: GCAAAACAGGGTCATCGTAGGCCAGAGTACGCACAGGCGATTGACAGCGTAGAATGAAGG
DNA 2: CCTTCATTCTACGCTGTCAATCGCCTGTGCGTACTCTGGCCTACGATGACCCTGTTTTGC
B26: NRC3_wobSeed114_DR4_C7A_o1 (dsDNA)
DNA 1: B25 DNA 1 with A5T, C7A
DNA 2: B25 DNA 2 with G54T, T56A
B27: NRC3_wobSeed114_DR4_G20C_o1 (dsDNA)
DNA 1: B25 DNA 1 with A5T, G20C
DNA 2: B25 DNA 2 with C41G, T56A
B28: NRC3_wobSeed27_DR1_T5G_o1 (dsDNA)
DNA 1: GCACGCGGAGGACAAAGGTCAGAGCTACGCCAGTGAGCGATTGACAGCGTAGAATGAAGG
DNA 2: CCTTCATTCTACGCTGTCAATCGCTCACTGGCGTAGCTCTGACCTTTGTCCTCCGCGTGC
B29: NRC3_wobSeed141_DR5_A29T_o1 (dsDNA)
DNA 1: GCAGTCAAAGTTCAGGACGAGGTAACGTTAAGCACGGCGATTGACAGCGTAGAATGAAGG
DNA 2: CCTTCATTCTACGCTGTCAATCGCCGTGCTTAACGTTACCTCGTCCTGAACTTTGACTGC
B30: NRC3_wobSeed140_DR5_T13C_o1 (dsDNA)
DNA 1: GCAGAATGAGGTCATACGTAGATCAGGGAAGAAAGTGCGATTGACAGCGTAGAATGAAGG
DNA 2: CCTTCATTCTACGCTGTCAATCGCACTTTCTTCCCTGATCTACGTATGACCTCATTCTGC
B31: NRC3_wobSeed42_DR1_C7A_o1 (dsDNA)
DNA 1: GCTATAAAGGGTCAAAGGCCAGAGTACGAATGTCGAGCGATTGACAGCGTAGAATGAAGG
DNA 2: CCTTCATTCTACGCTGTCAATCGCTCGACATTCGTACTCTGGCCTTTGACCCTTTATAGC

Substitutions are numbered along the chain they refer to.

For the data set, the target named is FXR:RXRa (Homo sapiens, UniProt Q96RI1;P19793 full;full). The experiment in a line: no ligand; PBM; 270 nM : 90 nM RXRa; PBS pH 7.4, 2% milk, 0.02% Triton X-100, 1 mM DTT, BSA, 0.4 mg/ml salmon testes DNA. The note with it: tags: His kept;His cleaved; copies: 1;1; label: surface-attached array probe. In a few lines: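 Binding z-scores take random background probes as their reference. They come from custom Agilent 4×180K protein-binding microarrays incubated 1 h with ligand-free nuclear receptor dimers, with antibodies against each partner (one per run) detecting binding. Scanned fluorescence was regression-normalized.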
Sequence of FXR:RXRa (Q96RI1 whole entry, chain 1 of 2): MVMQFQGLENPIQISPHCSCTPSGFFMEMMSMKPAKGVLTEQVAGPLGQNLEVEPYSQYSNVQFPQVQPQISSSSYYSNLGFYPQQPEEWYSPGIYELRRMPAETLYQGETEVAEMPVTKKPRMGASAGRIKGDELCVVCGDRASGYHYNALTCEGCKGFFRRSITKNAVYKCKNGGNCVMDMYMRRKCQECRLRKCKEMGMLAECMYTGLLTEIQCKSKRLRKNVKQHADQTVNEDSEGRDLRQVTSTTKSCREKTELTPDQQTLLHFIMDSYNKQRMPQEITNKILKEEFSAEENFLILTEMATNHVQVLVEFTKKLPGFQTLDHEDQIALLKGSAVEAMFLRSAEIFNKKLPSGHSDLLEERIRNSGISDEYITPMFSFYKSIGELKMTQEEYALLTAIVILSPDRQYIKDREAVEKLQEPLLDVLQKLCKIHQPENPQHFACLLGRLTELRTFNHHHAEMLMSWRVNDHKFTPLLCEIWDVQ
Sequence of FXR:RXRa (P19793 whole entry, chain 2 of 2): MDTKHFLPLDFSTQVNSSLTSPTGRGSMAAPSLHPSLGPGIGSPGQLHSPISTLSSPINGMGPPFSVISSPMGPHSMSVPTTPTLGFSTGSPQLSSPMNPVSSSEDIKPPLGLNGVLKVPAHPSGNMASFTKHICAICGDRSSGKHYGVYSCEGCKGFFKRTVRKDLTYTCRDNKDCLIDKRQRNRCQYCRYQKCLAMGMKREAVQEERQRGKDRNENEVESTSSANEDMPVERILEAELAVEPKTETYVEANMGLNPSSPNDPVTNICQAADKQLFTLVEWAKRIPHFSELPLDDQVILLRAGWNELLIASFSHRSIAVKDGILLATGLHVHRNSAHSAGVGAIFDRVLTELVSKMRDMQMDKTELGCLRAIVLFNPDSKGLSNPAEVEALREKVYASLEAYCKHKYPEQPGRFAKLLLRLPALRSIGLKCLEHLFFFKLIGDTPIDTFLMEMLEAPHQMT
As for B1, the binding signal was 7.91 PBM z-score against 500 random probes.

For the molecule B2, the binding signal was 4.23 PBM z-score against 500 random probes.

For B3, the binding signal was 4.14 PBM z-score against 500 random probes.

As for B4, the binding signal is 7.87 PBM z-score against 500 random probes.

For the molecule B5, the binding signal was 4.12 PBM z-score against 500 random probes.

With B6, the binding signal is 3.98 PBM z-score against 500 random probes.

For B7, the binding signal was 8.1 PBM z-score against 500 random probes.

For the molecule B8, the binding signal is 4.33 PBM z-score against 500 random probes.

For B9, the binding signal is 7.8 PBM z-score against 500 random probes.

For B10, the binding signal was 3.96 PBM z-score against 500 random probes.

On to B11, for which the binding signal is 7.83 PBM z-score against 500 random probes.

Take B12: the binding signal is 7.74 PBM z-score against 500 random probes.

On to B13, for which the binding signal is 4.02 PBM z-score against 500 random probes.

B14: the binding signal was 8.11 PBM z-score against 500 random probes.

As to B15, the binding signal is 4.46 PBM z-score against 500 random probes.

For B16, the binding signal is 4.37 PBM z-score against 500 random probes.

Take B17: the binding signal was 4.06 PBM z-score against 500 random probes.

B18: the binding signal was 7.81 PBM z-score against 500 random probes.

Turning to B19, the binding signal was 7.74 PBM z-score against 500 random probes.

Turning to B20, the binding signal was 7.7 PBM z-score against 500 random probes.

As for B21, the binding signal is 4.25 PBM z-score against 500 random probes.

Turning to B22, the binding signal is 4.42 PBM z-score against 500 random probes.

As to B23, the binding signal was 4.31 PBM z-score against 500 random probes.

For the molecule B24, the binding signal is 4.09 PBM z-score against 500 random probes.

As to B25, the binding signal is 7.8 PBM z-score against 500 random probes.

Take B26: the binding signal was 7.8 PBM z-score against 500 random probes.

On to B27, for which the binding signal is 7.71 PBM z-score against 500 random probes.

For B28, the binding signal is 4.39 PBM z-score against 500 random probes.

As to B29, the binding signal is 4.29 PBM z-score against 500 random probes.

On to B30, for which the binding signal was 8.1 PBM z-score against 500 random probes.

In the case of B31, the binding signal was 7.71 PBM z-score against 500 random probes.
